Results: patent US20200157190A1

What was measured:
[1] = target: Antigen 2; assay: ELISA, supernatant UNDILUTED, Plate 2 (Antigen 2), column 3, BLANK 0.06
[2] = target: Antigen 2; assay: ELISA, supernatant 1 TO 4, Plate 2 (Antigen 2), column 3, BLANK 0.06
[3] = target: Antigen 1; assay: ELISA, supernatant 1 TO 4096, Plate 1 (Antigen 1), column 3, BLANK 0.07
[4] = target: Antigen 1; assay: ELISA, supernatant 1 TO 256, Plate 1 (Antigen 1), column 3, BLANK 0.07
[5] = target: Antigen 2; assay: ELISA, supernatant 1 TO 16, Plate 2 (Antigen 2), column 3, BLANK 0.06
[6] = target: Antigen 2; assay: ELISA, supernatant 1 TO 4096, Plate 2 (Antigen 2), column 3, BLANK 0.06
[7] = target: Antigen 1; assay: ELISA, supernatant 1 TO 1024, Plate 1 (Antigen 1), column 3, BLANK 0.07
[8] = target: Antigen 1; assay: ELISA, supernatant UNDILUTED, Plate 1 (Antigen 1), column 3, BLANK 0.07
[9] = target: Antigen 1; assay: ELISA, supernatant 1 TO 4, Plate 1 (Antigen 1), column 3, BLANK 0.07
[10] = target: Antigen 1; assay: ELISA, supernatant 1 TO 16, Plate 1 (Antigen 1), column 3, BLANK 0.07
[11] = target: Antigen 2; assay: ELISA, supernatant 1 TO 1024, Plate 2 (Antigen 2), column 3, BLANK 0.06
[12] = target: Antigen 1; assay: ELISA, supernatant 1 TO 64, Plate 1 (Antigen 1), column 3, BLANK 0.07
[13] = target: Antigen 2; assay: ELISA, supernatant 1 TO 64, Plate 2 (Antigen 2), column 3, BLANK 0.06
[14] = target: Antigen 2; assay: ELISA, supernatant 1 TO 256, Plate 2 (Antigen 2), column 3, BLANK 0.06

ELISA plate reading [1]: 2.49
ELISA plate reading [2]: 1.81
ELISA plate reading [3]: 0.08
ELISA plate reading [4]: 0.07
ELISA plate reading [5]: 1.61
ELISA plate reading [6]: 0.14
ELISA plate reading [7]: 0.06
ELISA plate reading [8]: 0.66
ELISA plate reading [9]: 0.45
ELISA plate reading [10]: 0.16
ELISA plate reading [11]: 0.21
ELISA plate reading [12]: 0.1
ELISA plate reading [13]: 1.24
ELISA plate reading [14]: 0.52
B1: Heavy Chain Construct 4 with Light Chain Construct 2 (VH2-VH1/VL2) (antibody)
heavy: QSLEESGGRLVSPGTPLTLTCTASGFSLSSNAMGWVRQAPGEGLEYIGIIRPGGSTYYASWAKGRFTISKTSSTTVDLKMTSLTTEDTATYFCARAWDIWGPGTLVTVSLGQPKAPSVFPLAPCCGDTPSSTVTLGCLVKGYLPEPVTVTWNSGTLTNGVRTFPSVRQSSGLYSLSSVVSVTSSSQPVTCNVAHPATNTKVDKTVAPSTCSKPTCPPPELLGGRPQPQPQPQPQPQPQPQPQPQPQPQPQPQPQPQSRQSVEESGGRLVTPGTPLTLTCTVSGFSLNTNAIRWVRQAPGKGLEWIGAIDASGNTYYASWAKGRFTISKTSTTVDLKITSPTTEDTATYFCNRFNTANIWGPGTLVTVSSGQPKAPSVFPLAPCCGDTPSSTVTLGCLVKGYLPEPVTVTWNSGTLTNGVRTFPSVRQSSGLYSLSSVVSVTSSSQPVTCNVAHPATNTKVDKTVAPSTCSKPTCPPPELLGGPSVFIFPPKPKDTLMISRTPEVTCVVVDVSQDDPEVQFTWYINNEQVRTARPPLREQQFNSTIRVVSTLPIAHQDWLRGKEFKCKVHNKALPAPIEKTISKARGQPLEPKVYTMGPPREELSSRSVSLACMINGFYPSDISVEWEKNGKAEDNYKTTPAVLDSDGSYFLYSKLSVPTSEWQRGDVFTCSVMHEALHNHYTQKSISRSPGK
light: AFELTQTPSSVEAAVGGTVTIRCQASQSISNQLSWYQQKPGQPPKRLIYRASTLASGVPARFKGSGSGTAFTLTISDLECADGATYYCQSFYYTDVIDYNAFGGGTEVVVTGDPVAPTVLIFPPAADQVATGTVTIVCVANKYFPDVTVTWEVDGTTQTTGIENSKTPQNSADCTYNLSSTLTLTSTQYNSHKEYTCKVTQGTTSVVQSFNRGDC
